Results taken from article PMC10806198, “Effects of OxyR regulator on oxidative stress, Apx toxin secretion and virulence of Actinobacillus pleuropneumoniae”.

The binders below were run against T1, OxyR (rOxyR) (Actinobacillus pleuropneumoniae 4074 …, UniProt A0ABM6X4Q0 1-297) (assay: EMSA; dose-dependent; abolished by excess unlabeled probe; Lightshift EMSA binding buffer (composition and pH not given), 0.5 ul poly[d(I-C)], 10 ul, 25 C 30 min; 5% native PAGE in 0.5x TBE). Conditions: protein: recombinant; tags: His (pET28a NdeI/XhoI, HisTrap purified); chain copies: 4; label: biotin 3'-end; blunt.
T1 sequence: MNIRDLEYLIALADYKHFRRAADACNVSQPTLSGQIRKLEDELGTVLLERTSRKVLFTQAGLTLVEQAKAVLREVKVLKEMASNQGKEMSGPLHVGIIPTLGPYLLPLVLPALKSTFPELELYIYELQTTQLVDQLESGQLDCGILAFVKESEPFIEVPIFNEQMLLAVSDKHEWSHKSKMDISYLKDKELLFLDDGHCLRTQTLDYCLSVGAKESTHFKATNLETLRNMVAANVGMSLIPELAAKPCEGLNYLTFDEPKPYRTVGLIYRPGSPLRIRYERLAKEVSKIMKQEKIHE

Binder	binding result
oxyR promoter probe (oxyRp) (dsDNA) DNA 1: GAACGTACCAGCCGTAAGGTATTATTTACCCAAGCCGGTT DNA 2: AACCGGCTTGGGTAAATAATACCTTACGGCTGGTACGTTC	binds
apxIBD promoter probe (ApxIBDp) (dsDNA) DNA 1: ATGATAAATAGCAATCCTATATATATTAGGTGTGTAGGAT DNA 2: ATCCTACACACCTAATATATATAGGATTGCTATTTATCAT	binds
catalase promoter probe (05430p) (dsDNA) DNA 1: ATAATAATATATCCATACACAAAACCTATTAACATTCCAA DNA 2: TTGGAATGTTAATAGGTTTTGTGTATGGATATATTATTAT	binds
